Measured values: the supplement of paper PMC7125110
± gives the standard error. This sample holds only a part of the variants without activity.

B1: glmS ribozyme (parent)
chain: AUAAAAGCGCCAGAACUACAGAAAUGUAGUUGACGAGGAGGAGGUUUAUCGAAUUUUCGGCGGAUGCCUCCAAA

Variants of: B1
Assay: self-cleavage kobs at 640 uM GlcN6P; higher = faster cleavage; RNA array
Conditions: with glucosamine-6-phosphate
Summary of the method: (§1)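 In situ transcription by E. coli RNA polymerase produced barcoded ribozyme variants on sequenced MiSeq chips, and a hybridised Cy3 probe tracked them at 37 °C. Glucosamine-6-phosphate was flowed in at 40 μM to 10 mM in HEPES/KCl/Mg(OAc)2 buffer. kcat and KM were taken from weighted Michaelis–Menten fits of kobs values from exponential decay fits.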

| Variant | self-cleavage kobs at 640 uM GlcN6P [s⁻¹] |
| --- | --- |
| A42U C61G G66A | < 1e-05 |
| G43U C50G C70G | < 1e-05 |
| G59U C70G | 0.000548 ± 0.00023 |
| U47A C61U U69G | 0.00233 ± 0.0008 |
| A42G G43A C67U C68U | 0.000241 ± 0.00011 |
| U47A G66U C68A | 0.00243 ± 0.00077 |
| A48C U49G C50A | < 1e-05 |
| A42C G60C C70U | < 1e-05 |
| G51A G63U C70G | 7.13e-05 ± 2.7e-05 |
| A42U G43A G51A C68U | < 1e-05 |
| A52U C68G | 0.000375 ± 0.00018 |
| C58G C61U G63U C68A | 0.000162 ± 5.6e-05 |
| U47A C50G C67U C71A | 0.000221 ± 0.00011 |
| U45G U47G C71U | 0.000978 ± 0.00031 |
| G44U U54G C68A | < 1e-05 |
| G41U C50U G60C | < 1e-05 |
| A53C G60A G66A | < 1e-05 |
| U46A C58A C61U C71G | < 1e-05 |
| G43C U45G G63C U69G | < 1e-05 |
| G43A G44A C58U | < 1e-05 |
| A48G U49C G66A | < 1e-05 |
| C70U A72C | 0.000987 ± 0.00042 |
| U46G U49C U55G | < 1e-05 |

Variants of: B1
Assay: self-cleavage kobs at 2500 uM GlcN6P; higher = faster cleavage; RNA array
Conditions: with glucosamine-6-phosphate
Summary of the method: as §1

| Variant | self-cleavage kobs at 2500 uM GlcN6P [s⁻¹] |
| --- | --- |
| A6C C11U C68U | < 1e-05 |
| G7C G9U G60A | < 1e-05 |
| A6U C8U G32A A33G G44A U45G | < 1e-05 |
| A6C U46C U49C G63A | < 1e-05 |
| A6C C11U G21U G32C G41U G43U U65G C68U U69G | < 1e-05 |
| A6C G13U G60U U65C | < 1e-05 |
| U47A G66U C68A | 5.79e-05 ± 1.7e-05 |
| A42C G60C C70U | < 1e-05 |
| A6G U55A U57G C61A | < 1e-05 |
| G7A U46C A52U C58A | < 1e-05 |
| A52U C68G | 4.62e-05 ± 8.4e-06 |
| A6U G41C U65A G66C | < 1e-05 |
| C58G C61U G63U C68A | 0.000151 ± 4.4e-05 |
| G7A G41C C67U | < 1e-05 |
| A6U C58G C70A | 0.00016 ± 5.2e-05 |
| G7C G51U G66A C67U C68U | < 1e-05 |
| U46A C58A C61U C71G | < 1e-05 |
| A6G A52C U65G | < 1e-05 |
| A6G A53C C68A | < 1e-05 |
| G7C C11U U54A | < 1e-05 |
| C70U A72C | 0.0035 ± 0.0017 |
| U46G U49C U55G | < 1e-05 |

Variants of: B1
Assay: self-cleavage kobs at 10000 uM GlcN6P; higher = faster cleavage; RNA array
Conditions: with glucosamine-6-phosphate
Summary of the method: as §1

| Variant | self-cleavage kobs at 10000 uM GlcN6P [s⁻¹] |
| --- | --- |
| A42G G43A C67U C68U | 0.000713 ± 0.00018 |
| A42C G60C C70U | < 1e-05 |
| A52U C68G | 1.85e-05 ± 7.8e-06 |
| U47A C50G C67U C71A | 0.000134 ± 2.8e-05 |
| A6G A52C U65G | < 1e-05 |
